This is an account of results in the nanobody polyreactivity screen of Harvey et al. (2022).

This series in a line: yeast display, Sf9 membrane polyspecificity reagent, FACS + sequencing; frameworks hold sequencing errors. In a few lines:
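Synthetic nanobody libraries on Saccharomyces cerevisiae BJ5465 were galactose-induced for 36–48 hours, stained 1 hour at 4 °C with 10% biotinylated, detergent-solubilized Sf9 membrane reagent and enriched on streptavidin microbeads. FACS then separated cells into low and high (top ~1%) gates by anti-HA (expression) and streptavidin (reagent binding) fluorescence. Genes were colony-PCR amplified, MiSeq 2 × 250 sequenced and CDR-length filtered. A clone's polyreactivity label is that of its gate of origin.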
As for “QVQLVESGGGLVQAGGSLRLSCAASGSIFSKYAMGWYRPAPGKERELVAAIASSGGSTYYADSVKGRFTISRDNAKNTVYFQMNSLKPEDTAVYYCAAGGRSVRYNYWGQGTQVTVSS”, the “polyreactivity (PSR sort gate)” value is on record as “high polyreactivity”.
For the sequence “QVQLVESGGGLVQAGGSLRLSCAASGITFNYYVKGWYRQAPGKERELVAAIRRGGSTNYADSVKGRFTISRDNAKNTVYLQMNSLKPEDTAVYYCASRTYRGLAYDYWGQGTQVTVSS”, the “polyreactivity (PSR sort gate)” value was “high polyreactivity”.
In the case of “QVQLQESGGGLVQAGGSQRLSCAASGYIIYFQYMGWYRQAPRKEREFVAAISDGANTNYADSVKGRFTISRDNAKNTVYLQMNSLKPEDTAVYYCAVYADENYYYIYWGQGTQVTVSS” it was “low polyreactivity”; in that of “QVQLVESGGCLVQAGGSLRLSCAASGSINRSYAMAWYRQAPGKDWELVASISRRGGSTYYADSVKGRFTISRDNAKNSVYLQMNRLKPEDSAVYYCAAVRYNSRVSTTPSEMYYWGQGTQVTVSS”, “low polyreactivity”.
In the case of “QVQLVESGGGLVQAGGSLSLSCAASGSIFKFNTMGWSRQAPRKERELVAAISRSGGSTYYADSVKGRFTISRDNAKNNVYLQMNSLKPEDTAVYYCAARQFSGPYVRYGYWGQGTQVSVSS” it was “high polyreactivity”; in that of “QVQLVESGVGLVQAGGSLRLSCAASGGIFFYYAMGWSRQAPGKERELVAAISYSGGSTYYADSVKGRFTISRDNAKHTVYLQMNSVKPDDTAVNYCAAVPDYYEYSPYDYWGQGTQVTVSS”, “low polyreactivity”.
For the sequence “QVQLVESGGGLVQAGGSLRLSCAASGSIFYYYAMGWYRQAPGKERELVAAITRSGNTYYADSVKGRFTISRDNAKNTVYLQMNSLKPEDTAVYYCAAEYGGGYGWGQGTQVTVSS”, the “polyreactivity (PSR sort gate)” value is on record as “high polyreactivity”.
On to “QVQLVESGGGLVQAGGSLRLSCAASGRNFSANAMGWYRQAPGKEREMVATISSGGRTNYADSVKGRFTISRDNAKNTVYVQMNSLKPEDTAVYYCAKRGPYNRWYGRYDYWGQGTQVTVSS”, for which the “polyreactivity (PSR sort gate)” value was “low polyreactivity”.
In the case of “QVQLVESGGGLVQAGGSLRLSCAASGYTFVRYALGWYRQAPGKEMELVAAMSRSGGSTYYADSVKGRFTISRDNAKNTVYLQMNSLKPEDTAVYYCNAYPYSYYDYDYWGQGTQVTVSS” it was “high polyreactivity”; in that of “QVQLVESGGGLVQAGGSLRLSCAASGFTFYPYAMGWYRQAPGKERELVAIRSDGSTYYADSVKGRFTISRDNAKNTVYLQMNCLKPEDTAVYYCNTEPSRDSYSLYFQTRGDYWGQGTQVTVSS”, “low polyreactivity”.
For the sequence “QVQLVESGGGLVQAGGSLRLSCAASGFTFSYYAMGWYRQAPGKERELVAVISDRGGITYYADSVKGRFTISRDIAKITVYLQMNSLKPEDTAVYYCAAQNPRYNYRYYYWGQGTQVTVSS”, the “polyreactivity (PSR sort gate)” value is listed as “low polyreactivity”.
In the case of “QVQLVESGGGLVQAGGSLRLSCAASGYTFQHYGMGWYRQAPGKERELVAAITRRGSGTYYADSVKGRFTISRDNAKNTVYLQMNRLKPEDTAVYYCAAAVGHGVDYWGQGTQVTVSS” it was “high polyreactivity”; in that of “QVQLVESGGRLVQAVGSLRLRCAPSGNTFPVYAMGWYRQASGKERELVATITSGGSTNYADSVKGRFTISRDNAKNTVYLQMNSLKPEDTAVYYCARRAVYSKRRYDYWGQGTQVTVSS”, “low polyreactivity”; in that of “QVQLVESGGGLVQAGGSLRLSCAASGRTFSRNAMGWYRQAPGKERELVASISRSGASTYYADSVKGRFTISRDNAKNTVYLQMNSLKPEDTAVYYCNADVYSTYYNYNYWVQGTQVTVSS”, “high polyreactivity”.
The entry for “QVQLVESGGGLVQAGGSLRLSCAASGSTFTIYAMGWYRQAPGKERELVAAITFSGDRTYYADSVKGRFTISRDNAKNTVFLQMNSLKPEDTAVYYCAAKSSTKQRKYYWGQGTQVTVSS” is “high polyreactivity”; for “QVHLVESGGGLVQAGGSLRLSCAASGSIFVPYAMGWYRKAPGKERELVAAITYSDGCTYYADSVKGRFTMSRDNAKNTVYLQMNSLKPEDTAVYYCATYPQYYFRYDYWGQGTQVTVSS” it is “high polyreactivity”.
In the case of “QVQLVESGGGLVQAGGSLRLSCAASGRIFYYNTMGWYRQAPGKEREFVAAITGSGGITYYADSVKGRFTISRDNAKNTVYLQMNSLKPEDTAVYYCAARTRYSIYRYYYWGQGTQVTVSS” it was “high polyreactivity”.
Take “QVQLVESGGGLVQAGGSLRLSCAASGRIFKPYAMGWYRQAPGKERELVASISRRGGSTYYADSVKGRFTISRDNAKNTVYLQMNSLKPEDTAVYDCNASGTYISLGYDYWGQGTQVTVSS”: the “polyreactivity (PSR sort gate)” value is “high polyreactivity”.
For “QVQLVESGRRLVQAGGSLRLSCAASGINFDSYAMGWYRQAPGKERELVAAITSDSGRTYYADSVTGRFTISRDNAKNTVYLQMNSVKPEDTPVYYCAKRWDGPYDYWGQGTQVTVSS”, the “polyreactivity (PSR sort gate)” value was “low polyreactivity”.
With “QVQLVESAGGLVQAGGSLRLSCAASGSTLRAYAMGWYRQAPGKERELVAAISGSGDSTYYADSVKGRFTISRDNAKNTVYLQMNSLKPEDTAVYYCNKGLFSTGNIPYYLIVYLEYNYWGQGTQVTVSS”, the “polyreactivity (PSR sort gate)” value is “low polyreactivity”.
As to “QVQLVESGGGLVQAGGSLRLSCAASGLTFEWYPMGWSRQAPGKERELVAAITTGGTTNYADSVKGRFTISRDNAKNTVYLQMISLKPEDTAVYYCARLYRSGYEYWGQGTHVTVSS”, the “polyreactivity (PSR sort gate)” value is reported as “low polyreactivity”.
Regarding “QVQLVESGGGLVQAGGSLRLSCAASGFTFIKYAMGWYRQATGNEREFVATISWNGGNTYYADSVKGRFTISRDNAKNTVYLQMNSLKPEDTAVYYCAARVKYRTRGGTVVSYDYWGQGTQVTVSS”, the “polyreactivity (PSR sort gate)” value is listed as “high polyreactivity”.
The entry for “QVQLVETGGGLVQAGGSLRLSCAASGRTIRKYAMGWYRQAPGKERELVAAISWSGGSTYYANSVKGRFTISRDNAKNTVYLQMKSLKPVDTEVYYCAAVPVHTGSLYWGFTTGYDYWGQGTQVTVSS” is “low polyreactivity”.
As to “QVQLVESGGGLVQAGGSLRLSCAASGRTFPRNAMGWYRQAPGKERELVAAISYGGGRTYYADSVKGRFTISRDNAKNTVYLQMNSLKPEDTAVYYCATVRRTDYPLGMDYWGQGTQVTVSS”, the “polyreactivity (PSR sort gate)” value is listed as “high polyreactivity”.
In the case of “QVQLQDSGGGLVQAGGSLRLSCAASGTISYRYRMGWYRQAPRKELELVAGISFGSITYYADSVKGRFTISRDNAKNTVYLQMNSLKPEDIAVYYCAVYQKSYRFFPYWGQGTQVTVSS” it was “high polyreactivity”; in that of “QVQLVESGGGLVQAGGSLRLSCAASGFIFEWYTMGWYRQAPGKERELVARISSDGSTTYADSVKGRFTISRDNAKNTVYLQMNSLNPEDTAVYYCAADVTYPGLIYIYDYWGQGTQVTVSS”, “low polyreactivity”.
The entry for “QVQLVESGGGLVQAGGSLRLSCAASGRIFGKNAMGWYIQAPRKERDLVAAITSTGGTTYYADSVMGRFTISRDNAKNTVYLQMNSLKPEDSAVYDCAKDGQTNNETQGLKYDYWGQGTQLTVSS” is “low polyreactivity”; for “QVQLVESGGGLVQAGGSLRLSCAASGFTISFYAMGWYRQAPGKERELVAAITWNGGNTYYADSVKGRFTISRDNAKNTVYLQMNSLKPEDTAVYYCNKDSYYYHFDYWGQGTQVTVSS” it is “high polyreactivity”; for “QVQLVESGGGLVQAGGSLRLSCAASGSTYKFYAMGWYRQATGKERELVAAISGSSGSTYYADSVKGRFTISRDNAKNTVYLQMNSLKPEDTAVYYWNTQYSRYYTRYSAYDYWGQGTQVTVSS” it is “low polyreactivity”.
On to “QVQLVESGGGLVQAGGSLRLSCAASGSTFLNYAMGWYRQAPGKERELVAAISGRGGRTYYADSVKGRFTISRDNAKNTVYLQMNSLTPEDTAVYYCAARKWVSYTSYDYWGQGTQVTVSS”, for which the “polyreactivity (PSR sort gate)” value is “high polyreactivity”.
For “QVQLVESGGGLVQAGGSLRLSCAASGRILRYYAMGGYRQAPGKERELVAAITSGGSTTYYADSVKGRFTISRDNAKNTVYLQMNSLKPEDTAVYYCAADRARSSAKYDYWGQGTQVTVSS”, the “polyreactivity (PSR sort gate)” value was “low polyreactivity”.
As to “QVQLVESRGGLVQAGGSLRLTCAASGSTFTHYAMGWYRQAPGKERELVAAISSGGGSTYYADSVKGRFTISRDNAKNTVYVQMNSLKPEDTAVYYCAVRSQFRAWRFYYWGQGTQVNVSS”, the “polyreactivity (PSR sort gate)” value was “high polyreactivity”.
The entry for “QVQLVESGGGLVQAGGSLRLSCAASGITFRPYPMGWYRQAPGKERELVATINWSGGSTYYADSVKGRFTISRDNAKKTVYLQMNSLKPEDTAVSYCAVTWYVRRWYGYWGQGTQVTVSS” is “high polyreactivity”.
In the case of “QVQLVESGGGLVQAGGSLRLSCAASGSTFRLNAMGWYRQARGKEWEFVAAISSRGGSTYYADSVKGRFTISRDNAKNTDYLQMNSLKPEDTAVYYCKAVRSKLIENDYWGQGTQVTVSS”, the “polyreactivity (PSR sort gate)” value is given as “high polyreactivity”.
In the case of “QVQLVESGGGLVQAGGSLRLNSAASGSIFYRYAMRWYRQAPGKERELVAAISSNGGRTYYADSVKGRFTISRDNSKNTVYLQMNSLKPEDTAVYYCATLPGYSMDYWGQGTQVTVSS” it was “high polyreactivity”; in that of “QVQLVESGGGLVQAGGSLRLSCAASGRIFGPYTKGWYRQAPGKERQLVAAISCSGGSTYYADSVKGRFTISRDNAKNTVYLQMNSLKPEDTAVSYCKADHPFPQYEGGSSGQGTQVTVSS”, “low polyreactivity”; in that of “QVQLEESGGGLVQAGGSLRLSCAASGLICVLYTMGSYRQAPGKERELVATINWGGGNTYYADSVKGRFTISRDNAKNTVYLQMNSLKPEDTAVYYCAAAYTWYGYSQAYYYWGQGTQVTVSS”, “low polyreactivity”.
In the case of “QVQLVESGGGLVQAGGSLRLSCAASGFIFITVNAMGWYRQAPGKEREFVAAITRSGTGTYYADSVKGRFTISRDYAKYTVFLQMNSLKPEDTAVSYCAADATSTGAYDYWGQGTQVTVSS”, the “polyreactivity (PSR sort gate)” value was “low polyreactivity”.
The entry for “QVQLVESGGGLVQAGGSLRLSCAASGRIFTRNAMGWYRQAPGKERQLVAAISHSGGSTYADSVKGRFTISRDNAKNTVYLQMNSLKPEDTAVYYCAADSPYGYYEGDYCGQGTQVTVSS” is “low polyreactivity”; for “QVQLVESGGGLVQAGGSLRLSCGASGFISKFYAMGWYRQAPGKERELVASISRDGSTSYADSVKGRFTMSRDNAKNSVYLQMNSLKPEDTAVYYCAAPSYRTRYYYWGQGTQVTVSS” it is “high polyreactivity”; for “QVQLVESGGGLVQAGGSLRLSCAASGSTFGRYAMGWYRQAPGKERELVAAITTSGGRTRYADSVKGRFTISRDNAKNPVYLQMNSLKPEDTAVYYCAASGAQGPDYDYWGQGTQVTVSS” it is “low polyreactivity”.
